{
  "source": "paper PMC3626604",
  "about": "“The C-Type Lectin of the Aggrecan G3 Domain Activates Complement” (PLoS ONE, 2013)",
  "binders": {"B1": {"name": "recombinant bovine fibromodulin (natural protein, UniProt P13605 19-376, looked up)", "chain": "QYEEDSHWWFQFLRNQQSTYDDPYDPYPYEPYEPYPYGGEEGPAYAYGSPPQPEPRDCPQECDCPPNFPTAMYCDNRNLKYLPFVPSRMKYVYFQNNQISSIQEGVFDNATGLLWIALHGNQITSDKVGKKVFSKLRHLERLYLDHNNLTRIPSPLPRSLRELHLDHNQISRVPNNALEGLENLTALYLHHNEIQEVGSSMKGLRSLILLDLSYNHLRKVPDGLPSALEQLYLEHNNVFSVPDSYFRGSPKLLYVRLSHNSLTNNGLASNTFNSSSLLELDLSYNQLQKIPPVSTNLENLYLQGNRINEFSISSFCTVVDVMNFSKLQVLRLDGNEIKRSAMPADAPLCLRLASLIEI", "notes": "fibromodulin, bovine; source: recombinant"}},
  "target": "T1, factor H (human (endogenous in normal human serum), UniProt P08603 19-1231)",
  "T1 construct": "complement factor H; also called FH",
  "T1 sequence (P08603 19-1231)": "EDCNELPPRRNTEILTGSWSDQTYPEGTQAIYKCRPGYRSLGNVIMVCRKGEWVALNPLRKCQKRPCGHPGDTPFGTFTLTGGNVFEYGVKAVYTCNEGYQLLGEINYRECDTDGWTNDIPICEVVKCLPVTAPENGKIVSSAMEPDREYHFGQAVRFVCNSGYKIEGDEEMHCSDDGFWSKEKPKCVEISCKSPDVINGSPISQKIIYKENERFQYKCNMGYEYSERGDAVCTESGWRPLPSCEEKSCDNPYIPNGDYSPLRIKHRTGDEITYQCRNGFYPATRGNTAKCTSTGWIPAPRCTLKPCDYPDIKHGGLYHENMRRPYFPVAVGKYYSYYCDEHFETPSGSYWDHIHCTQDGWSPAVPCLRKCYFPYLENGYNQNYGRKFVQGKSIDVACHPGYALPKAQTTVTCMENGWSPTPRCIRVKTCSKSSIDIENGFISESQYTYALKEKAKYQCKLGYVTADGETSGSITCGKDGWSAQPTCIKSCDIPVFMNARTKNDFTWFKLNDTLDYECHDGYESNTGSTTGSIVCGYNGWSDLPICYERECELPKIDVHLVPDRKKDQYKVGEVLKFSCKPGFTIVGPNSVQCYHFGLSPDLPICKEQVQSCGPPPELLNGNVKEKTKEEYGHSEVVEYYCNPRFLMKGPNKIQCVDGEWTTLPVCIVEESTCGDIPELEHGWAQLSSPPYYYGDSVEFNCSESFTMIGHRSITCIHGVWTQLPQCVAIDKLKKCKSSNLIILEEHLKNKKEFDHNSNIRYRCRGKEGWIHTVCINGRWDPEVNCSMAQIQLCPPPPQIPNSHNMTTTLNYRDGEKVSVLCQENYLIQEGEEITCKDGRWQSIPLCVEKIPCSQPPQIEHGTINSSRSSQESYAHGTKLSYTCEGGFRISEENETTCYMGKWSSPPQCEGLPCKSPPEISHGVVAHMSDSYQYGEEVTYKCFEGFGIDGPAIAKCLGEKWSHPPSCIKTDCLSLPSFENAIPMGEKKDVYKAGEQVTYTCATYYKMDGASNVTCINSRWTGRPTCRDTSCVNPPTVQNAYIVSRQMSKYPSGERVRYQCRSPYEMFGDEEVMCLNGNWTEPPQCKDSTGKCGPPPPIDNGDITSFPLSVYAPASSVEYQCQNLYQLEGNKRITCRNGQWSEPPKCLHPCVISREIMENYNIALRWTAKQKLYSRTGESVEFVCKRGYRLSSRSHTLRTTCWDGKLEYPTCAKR",
  "test": "ELISA; proteins coated (G3 fragments 5 µg/ml, fibromodulin 2.5 µg/ml); heat-inactivated normal human serum diluted in 50 mM Hepes pH 7.4, 150 mM NaCl, 2 mM CaCl2, 50 µg/ml BSA; 1 h at RT; detected with anti-FH",
  "details": "one partner purified",
  "data": [
    {"binder": "B1", "values": [
      {"measurement": "binding result", "result": "binds"}
    ]}
  ]
}
